In a protein production outcome set (Wang et al. 2014):

Experiment: label from the status in PepcDB records
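Also: failed if final PepcDB status was selected cloned or expressed and not failed if soluble or beyond.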

Row | Sequence | protein production
1 | MKYLCLIYFDEAKLAAVPAEELAAIVDECMTYSDQLGKAGHYIASHALQSVQTATTLRHQGGRLAMTDGPFAETKEQLGGFYLIEARDLNQALQIAAKIPPGRLGCVEVRPVKEWE | not failed
2 | MKYLLLPVVVLLAGCQSLSQSDGNAITDNSDSQVETAHPVEINQALLADESIDVIHPVADVDFSLNNTLKDQKAIDENNIWPRIRSQLTFDIPNQKRLVSQRNWYVKHPSYLKRVAKRAEPFLYYIVQELEKNDMPIELAFLPIVESAFDPFAYSHGRASGMWQFVPGTGERFGMKQNWWYDGRRDVVASTEGAIKYLKYLHKFFDGDWMLALAAYNSGEGRVRNAVRKNKRLGKPTDFWSLDLPKETRAYVPKLLALADIVKRPEDFNLSLYSIDNKSVLSQVDIKSQLDLAKAATLAGLSLAELQRLNPGFNRWATDPDGPHRLLLPSHTVEKFELGLSKLSKKDRLAWQRYKIKSGDNLGLIANKFNTRVDLIQQVNNIKGNQIRAGKHLLIPVAAKSLDSYVFSQEQRIAKKQNRPQKGRKLVHTVKSGDNLWDIGRKYKVNSKSIAKWNGFAPRDTLKLGQKLVIWQKSDTKSNKSNFANSKTGNNVENAIMRNITYKVRRGDSFARIADKFNVRISDIERWNNLDRKKYLQPGQRLKLSVDVTNNI | failed
3 | MLAAWLGCVLPAGAGLPVETLRVPPGFRVELLTEAMPSAREMALSPAGILYVGSRTGKVYALPLQVPGATVRVVASGLEQPVGVAWRDGSLYVSAVSRVVRLDRIDSRLDDPPVPVVVSDRFPTETHHGWKFIAFGPDGKLYVPVGAPCNVCHRDEDRYANLMRMNADGSSLEVVARGIRNTVGFDWHPVTHELWFTDNGADMMGDDVPDDELNRITAPGQHFGYPFCHAGDVPDPEFGAGHPCSRYVPPVGKLGAHVAALGMRFYTGSNFPQAYRHNLFIAEHGSWNRSSKVGYRVVRVVLDAAGKVVRQEPFVEGWLRGERAWGRPVDVLVAPDGSLLVSDDYAGAVYRVRYTGKLEHHHHHH | failed
4 | MLAILYDRIRPDERMLFERAEALGLPYKKVYVPALPMVLGERPKELEGVTVALERCVSQSRGLAAARYLTALGIPVVNRPEVIEACGDKWATSVALAKAGLPQPKTALATDREEALRLMEAFGYPVVLKPVIGSWGRLLAKVTDRAAAEALLEHKEVLGGFQHQLFYIQEYVEKPGRDIRVFVVGERAIAAIYRRSAHWITNTARGGQAENCPLTEEVARLSVKAAEAVGGGVVAVDLFESERGLLVNEVNHTMEFKNSVHTTGVDIPGEILKYAWSLAS | not failed
5 | MLANQIKYVILHLTQSIIEYSMANLNCIKAVLAEKGIMSKWLAKTLKKDPATVSKWCNNHSQPDLYTLARIAEVLDVDIHKLICHTKEE | failed
6 | MLAPGMGEWVYKANLFLFGEFAYYYPFFLFILNYVYYKRNYKLANFTRRELFGIGFAFFSSLLLFAVFYPNSGYILELAYAIFSTILGHTGSGIFALLLLLFSLVLLFPKFAKEILKIELDFTYLLKVEQAFKSLLMRVFGGENEKEDVGKSEPIVPKLNILQDSIYGNLQINKKGETNNLEQIIKDSNINASKNSITTAKENFEKLKNQILDETIEIDKQSLKESRSFVHEHSQQVRNFAQKASKMSISLDEDFNFISEEEVDMIPERFLKPKKLEDIKQIDTNKNLDEPSYKRKNIEIPVSNQEVKPKIFTKELELRENLIKKEKLEQEYKAYQNEILENKVKQEIKKLEEYDAINSSDIIEGNKYSFNSPKTIKTETEESDKINENKNLDKADNIFEFAPIVEELNHPYIEPTPIKNINEIVIEEKNTLDFIQNTETKIDNEKTNDQEIKLQKAVLAKEIAINQALLREIEQGEIEKPKDFTLPPLDFLANPKEHKQEINESEIDKKIYNLLEKLRRFKIGGDVISTYVGPVVTTFEFRPSADVKVSRILNLQDDLTMALMAKSIRIQAPIPGKDVVGIEVPNDEIQTIYLREILQSEVFKNAKSPLTIALGKDIVGNAFVTDLKKLPHLLIAGTTGSGKSVGINSMLLSLLYRNSPKTLRLMMIDPKMLEFSIYNDIPHLLTPVITDPKKAVNALSNMVAEMERRYRLMADAKTKNIENYNEKMKELGGEKLPFIVVIIDELADLMMTAGKDVEFYIGRLAQMARASGIHLIVATQRPSVDVVTGLIKANLPSRISYKVGQKIDSKVILDAMGAESLLGRGDCLFTPPGTSSIVRLHAPFASEFEIEKIVDFLKDQQSVEYDESFLKDQQSVGVTTNESFDGEADELYEEAKRVILEDGKTSISYLQRRLKIGYNRSANIIEQLTQNGILSEPDAKGQREIL | failed
7 | MLARVRRVLALILIVLAGLVALLSPAFPALSHYGTLPRHGDKPLNVLLAGVDVNYDEQAPVWPYPAQPEDYSGRTDTIVLTQVRPDGTVKLLSIPRDSWVPIAGWSGGWGKINSANVHGGPDMLLNTVQALTGVHPDGYALLSLNALRAVTEAVGGVTIDVPQRMKYDDNAGHLHIDLQPGRQRLSGEQAEGFLRFRKDNMGDIGRVGRQQQFLTALIAEIRRPANVWKLPKVIAALDANAKTNLTRAQIAELLGAAQRGPQVSTFTVPGNFGMVGAASVWNVDTPRLDALLAEQFRDPGDPHGLRVLVLNADAPDGSARRLKAKLEALGYHNVSTANEQKPWPVTTVSGPATPAAALLRDLGYGQLDNAPSLPGSELTIRLGRDTPAQ | failed
8 | MLAVGIVGLPNVGKSTLFNALTRANALAANYPFATIDKNVGVVPLEDERLYALQRTFAKGERVPPVVPTHVEFVDIAGLVKGAHKGEGLGNQFLAHIREVAAIAHVLRCFPDPDVVHVMGRVDPLEDAEVVETELLLADLATLERRLERLRKEARADRERLPLLEAAEGLYVHLQEGKPARTFPPSEAVARFLKETPLLTAKPVIYVANVAEEDLPDGRGNPQVEAVRRKALEEGAEVVVVSARLEAELAELSGEEARELLAAYGLQESGLQRLARAGYRALDLLTFFTAGEKEVRAWTVRRGTKAPRAAGEIHSDMERGFIRAEVIPWDKLVEAGGWARAKERGWVRLEGKDYEVQDGDVIYVLFNA | not failed
9 | MLAVSFIAGVILIGLYGVDSSERYIAVSELLANPQDYSGQNINAMGVVEDRSLHKDPGVTSFDLKDENDENLKIHVNYVGNLPSNLAEGKQVTIRGSMISESTFEANKIVTGCPSKYTELEHHHHHH | failed
10 | MLCARTDNHQGTGNVVTSAHMTRANDDDAGAAGIGAVAHMTTVDDNYTGHVERGKAARRFLPGATILKASVGPMDNNAYLVTCSATGETLLIDAANDAEVLIDLVRRYAPKLALIVTSHQHFDHWQALQAVAAATGAPTAAHPIDADPLPVKPDRLLTHGDSVRIGELTFDVIHLRGHTPGSIALALGGPVTGGVTQLFTGDCLFPGGVGKTWQPADFTQLLDDVTTRVFDVYADSTVIYPGHGDDTELGAERPSLSEWRARGW | failed
11 | MLCCMRRTKQVEKNDDDQKIEQDGIKPEDKAHKAATKIQASFRGHITRKKLKGEKKDDVQAAEAEANKKDEAPVADGVEKKGEGTTTAEAAPATGSKPDEPGKAGETPSEEKKGEGDAATEQAAPQAPASSEEKAGSAETESATKASTDNSPSSKAEDAPAKEEPKQADVPAAVTAAAATTPAAEDAAAKATAQPPTETGESSQAEENIEAVDETKPKESARQDEGKEEEPEADQEHA | failed
12 | MLCCPDPRRRGQHNNRRRNAMPKLHESRIHDLRPTQLTVGMIEVQAKKTHLAAMAPADQQAFMQAHPIPAVLGPGGQLYITDHHHLGRAALDAGVITGYFMVEADLSQHSLDDFWKAMDQNLWVHPLDEHGVRHYYASIPKHLEKLVDDPYRSLAGYVRDAGGYDKTPTAFAEFVWADFFRRSIPIEDLLADFQAAVHAALPLAKSKFAKALPGYNGKLEHHHHHH | failed
13 | MLDANKLQQAVDQAYTQFHSLNGGQNADYIPFLANVPGQLAAVAIVTCDGNVYSAGDSDYRFALESISKVCTLALALEDVGPQAVQDKIGADPTGLPFNSVIALELHGGKPLSPLVNAGAIATTSLINAENVEQRWQRILHIQQQLAGEQVALSDEVNQSEQTTNFHNRAIAWLLYSAGYLYCDAMEACDVYTRQCSTLLNTIELATLGATLAAGGVNPLTHKRVLQADNVPYILAEMMMEGLYGRSGDWAYRVGLPGKSGVGGGILAVVPGVMGIAAFSPPLDEDGNSVRGQKMVASVAKQLGYNVFKG | not failed
14 | MLDGWQEIEADQIKRMQSALWHLLGNAIAYLSLFVIELVLATIGHSQSLHADAFNNFAGIVSSGLLSLGIWGGIHNHQSHQSKVTALDGWEAERRNRLMRFRLQDLFTLMSGVIMLVMAVQVIVSGVSNLFKSHTVQAVSGVTVWGAAIASIVMLVVWYFNRRGGQQLDNSTLLAAAKDSLSDALTSIGTLISLSGVLLFKFAWLDSVASIVIGFFIFAAGLQIFRDSGLQLINYSDPQVEKNYINTIQQIDGVNQVNAIDVQYSGSLVALSLVIAVSPRMTVAASFQLSERIEQVMRNQYGIIDTKVMFMPQT | failed
